What is called Kd is the free concentration of one partner at which half of the binding sites on the other are occupied at equilibrium, for simple one-to-one binding.

Where “and” joins values, the source holds several entries; their conditions need not be identical. Equal values may be shown once.

Experimental findings from patent US20240425603A1 (Janssen / Centocor, published 2024) are described below.

For assay [1], the target named is T1, cynomolgus monkey VEGFR1, over-expressed on HEK293 cells (cynomolgus monkey).
T1 construct: whole, on cells; also called HEK/ cyno VEGFR1; cynoVEGFR1
In words: flow cytometry, 10 nM antibody, HEK cells over-expressing cyno VEGFR1. How it is done:
Parental CHO-K1 cells, CHO-K1 cells stably expressing human VEGFR1, Ba/F3 parental, and Ba/F3 cells stably expressing murine VEGFR1 were stained for 10 minutes at 4° C. with either no stain, CSFE, CTV, or CTV+CSFE, respectively. Cells were subsequently washed with media containing heat inactivated FBS, collected by centrifugation, combined, resuspended in stain buffer, and plated (95 μL/well; 200,000 of each cell type per well). Antibody samples were added ([…]) to a final concentration of 10 nM and incubated for 60 min at 4° C. protected from light. Cells were washed twice with 150 μL/well stain buffer. AlexaFluor647-conjugated anti-human IgG1 secondary antibody was added (100 μL/well) and incubated for 30 minutes at 4° C. protected from light. Cells were washed twice with 150 μL of stain buffer, ultimately resuspended in 30 μL of running buffer and read on an iQue flow cytometer. This single concentration assay was used as a quick confirmation of binding to human and mouse VEGFR1 on cells. A similar assay was performed to confirm binding of candidate antibodies to HEK293 cells stably over-expressing cyno VEGFR1 at a single concentration of 10 nM.

The target of assay [2] is T2, NECTIN1 Isoform Gamma (NM_203286.1) (human, UniProt Q15223-3 31-352).
T2 construct: whole, on cells
T2 sequence (looked up): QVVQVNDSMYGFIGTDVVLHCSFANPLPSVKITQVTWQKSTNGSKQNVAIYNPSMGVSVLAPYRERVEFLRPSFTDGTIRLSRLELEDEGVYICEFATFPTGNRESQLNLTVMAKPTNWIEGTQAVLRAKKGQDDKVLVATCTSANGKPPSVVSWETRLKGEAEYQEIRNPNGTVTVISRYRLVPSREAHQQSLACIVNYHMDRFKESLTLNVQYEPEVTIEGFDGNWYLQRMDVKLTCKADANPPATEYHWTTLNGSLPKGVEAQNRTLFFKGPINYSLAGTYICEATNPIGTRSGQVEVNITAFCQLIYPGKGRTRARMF
The assay can be described thus: Retrogenix cell microarray, fixed HEK293 cells; blank cells in Table 32 (topology TS and S). How it is done: This human cell microarray methodology has been previously described in the literature (Freeth, J. et al, SLAS Discovery, 25 (2), 223-230, 2020). Primary screening was performed on slides arrayed with fixed HEK293 cells with each spot of HEK293 cells expressing either a unique protein from the cell surface-ome, a cell surface tethered human secreted protein, or a heterodimeric human cell surface receptor. In total, 5,528 unique gene products were represented in this primary screen (4,103 human plasma membrane proteins (+some untethered secreted proteins)+1,425 cell surface tethered human secreted proteins). Briefly, slides containing fixed transfected HEK293 cells were overlaid with a solution of test antibody (2 μg/mL), incubated, and washed. Binding was assessed using AlexaFluor647-conjugated anti-human IgG Fc detection antibody and fluorescence quantitation on ImageQuant. […] Located in the ER, off-target binding to CRELD2 was of less concern. Nectin-1, FGFR2, and ISLR, on the other hand, display broad tissue expression profiles. Cross-reactivity to these proteins is undesirable because binding to these targets might have a significant impact on pharmacokinetic and biodistribution profiles of the molecules. This off-target binding was subsequently confirmed by flow cytometry on live HEK293 cells transiently expressing these ‘off-target’ proteins identified in the primary screen.

Assay [3] concerns the target T3, cynomolgus monkey VEGFR1 (soluble antigen of the KinExA and SPR affinity assays) (cynomolgus monkey). In words: KinExA, solution. How it is done:
(§1) Kinetic exclusion assay (KEA; KinExA) was used to analyze the binding of anti-VEGFR1 antibodies to human, mouse and cynomolgus monkeys VEGFR1. KEA is a fluorescence-based solution method, and it is described in detail in the literature (Darling and Brault, 2004). To measure the affinity of an interaction, a series of solutions with a fixed concentration of one interactant (A) and varying concentrations of another interactant (B) are prepared and allowed to reach equilibrium. After equilibration, the concentration of free A is determined by flowing the equilibrated mixture through a column packed with beads modified with reactant B. Free A binds to the beads and is then detected using a fluorescently labeled polyclonal antibody.
(§2) Briefly, fixed concentrations (300 pM, 60 pM, 12 pM, 2.4 or 0.5 pM) of Ab were used to prepare a serial dilution of the antigen (2 nM to 0.52 pM, or 800 pM to 5.37 fM). The complex titrations were incubated at RT to reach binding equilibrium for at least 2 days. After incubation, the samples were run on the KinExA3200 or KinExA4000 instrument to assess free antibody in the reaction. During these studies some of the data were rejected because the experiments failed or failed the acceptance criteria. For mouse VEGFR1 the 60 and 300 pM concentrations were rejected due to high titrant related NSB. The dissociation equilibrium constant, (KD), was determined using the n-curve analysis feature of the KinExA Pro software. This program uses nonlinear least-square regression analysis of the globally fitted data to a 1:1 binding model. (CI=confidence interval).
For orientation: Kinetic exclusion samples the free partner from a solution-phase mixture.

Assay [4] concerns the target T4, mouse VEGFR1 (soluble antigen of the KinExA and SPR affinity assays) (mouse, UniProt P35969 23-759, limits assumed).
T4 sequence (looked up): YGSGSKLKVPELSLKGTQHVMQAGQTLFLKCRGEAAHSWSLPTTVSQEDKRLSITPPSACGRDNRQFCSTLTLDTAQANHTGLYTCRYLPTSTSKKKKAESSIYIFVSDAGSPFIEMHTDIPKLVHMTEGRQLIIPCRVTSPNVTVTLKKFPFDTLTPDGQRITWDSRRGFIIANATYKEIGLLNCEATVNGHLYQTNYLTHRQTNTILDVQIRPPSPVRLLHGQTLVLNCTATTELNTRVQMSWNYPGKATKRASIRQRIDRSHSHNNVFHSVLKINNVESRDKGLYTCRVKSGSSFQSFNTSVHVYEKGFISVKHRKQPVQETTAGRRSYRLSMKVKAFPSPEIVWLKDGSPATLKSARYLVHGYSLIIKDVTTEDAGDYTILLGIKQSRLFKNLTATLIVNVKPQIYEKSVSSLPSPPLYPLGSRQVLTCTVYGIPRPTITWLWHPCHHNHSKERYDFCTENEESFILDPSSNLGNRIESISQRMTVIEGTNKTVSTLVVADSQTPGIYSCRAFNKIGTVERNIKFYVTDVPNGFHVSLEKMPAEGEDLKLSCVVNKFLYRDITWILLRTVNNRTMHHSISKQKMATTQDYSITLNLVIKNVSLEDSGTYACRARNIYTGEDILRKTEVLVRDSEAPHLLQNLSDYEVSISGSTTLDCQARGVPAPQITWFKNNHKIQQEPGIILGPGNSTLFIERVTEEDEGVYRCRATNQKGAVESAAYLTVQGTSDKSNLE
The assay can be described thus: KinExA, solution. How it is done:
as §1, §2

Assay [5] deals with T3, cynomolgus monkey VEGFR1 (soluble …). The assay can be described thus: SPR. (In SPR one partner is held on a chip, and binding of the other changes the refractive index at the surface.)

B1: VGFB82 (antibody, human IgG1, lambda, L234A L235A, V domains shown)
VH: EVQLLESGGGLVQPGGSLRLSCEASGFDFSTYAMNWVRQAPGKGLEWVATINSEGTITSHAPAVKGRFTISRDNSKNTAYVQMNSLRAEDSAVYYCSSTTGTTHGMDVWGRGTTVTVSS
VL: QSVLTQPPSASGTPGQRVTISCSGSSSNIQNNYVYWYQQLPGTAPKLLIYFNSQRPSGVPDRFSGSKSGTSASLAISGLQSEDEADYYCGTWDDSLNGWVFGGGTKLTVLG
notes: human IgG1 (L234A/L235A/D265S)
Regarding B1, the “Geomean over-expressing/Geomean parental (Fold Signal/Background)” value in assay [1] was found to be 3.3 fold. Also, the binding result in assay [2] was “no binding (tested: 2 µg/mL)”. Also, the Kd was 0.0003 nM in assay [3]; 0.023 nM in assay [4]; 0.038 nM and 0.023 nM in assay [5].

B2: VGFB54 (antibody, human IgG1, lambda, L234A L235A, V domains shown)
VH: EVQLLESGGGSVQPGGSLRLSCTASGFNFEDYGMNWVRQAPGKGLDWVSSINRNGDISTYHVDSVKGRFTISRDNSKNTLYLQMNSLRAEDTAIYYCTKNHDYHGMDVWGQGTTVTVSS
VL: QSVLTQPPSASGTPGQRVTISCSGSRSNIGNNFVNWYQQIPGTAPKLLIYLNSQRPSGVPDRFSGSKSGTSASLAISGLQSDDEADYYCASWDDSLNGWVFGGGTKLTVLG
notes: human IgG1 (L234A/L235A/D265S), lambda, 2H:2L; from OmniChicken
As to B2, the “Geomean over-expressing/Geomean parental (Fold Signal/Background)” value in assay [1] is 4.4 fold. Besides, in assay [2], the binding result is listed as “no binding (tested: 2 µg/mL)”. Besides, the Kd in assay [5] was 0.016 nM and 0.018 nM.

B3: VGFB78 (antibody, human IgG1, lambda, L234A L235A, V domains shown)
VH: EVQLLESGGGLVQPGGSLRLSCAASSFTFYNYDMTWVRQAPGKGLEWVAGIGTSGTDMYYADSVKGRFTISRDNSKNTLYLQMNSLRAEDTAIYYCAKDYYYYGMDVWGLGTTVTVSS
VL: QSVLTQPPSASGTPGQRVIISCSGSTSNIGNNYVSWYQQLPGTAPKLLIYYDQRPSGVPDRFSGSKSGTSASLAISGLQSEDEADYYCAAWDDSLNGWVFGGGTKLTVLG
notes: as for B1
For B3, the “Geomean over-expressing/Geomean parental (Fold Signal/Background)” value in assay [1] was determined as 4.46 fold. The Kd is 0.00071 nM in assay [3] and 0.00385 nM in assay [4].

B4: VGFB71 (antibody, human IgG1, lambda, L234A L235A, V domains shown)
VH: EVQLLESGGGLVQPGGSLRLSCEASGFIFRDYNMNWVRQAPGKGLEWVSIITNDGSSTAYSDSVKGRFTISRDNSKNSLYLQMNSLRAEDTAIYYCVKVYYGMDDWGQGTTVTVSS
VL: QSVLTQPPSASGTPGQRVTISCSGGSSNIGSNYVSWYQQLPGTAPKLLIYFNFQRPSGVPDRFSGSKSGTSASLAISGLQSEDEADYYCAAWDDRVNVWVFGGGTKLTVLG
notes: as for B1
For the molecule B4, the “Geomean over-expressing/Geomean parental (Fold Signal/Background)” value in assay [1] stood at 3.8 fold.
